Columns and labels:
[1] = target: Bax_(C87(C62S, C126S)) labeled with maleimide gem-diethyl nitroxide (MAG) (human) (UniProt Q07812); assay: DEER (double electron-electron resonance, EPR); inactive Bax in buffer (aqueous solution) with 50% v/v glycerol-d8, flash frozen; Q-band 4-pulse DEER, NO-NO at 50 K, Gd-Gd at 10 K; one labeled variant per sample
[2] = target: T1, Bax wild type labeled with iodacetamide gem-diethyl nitroxide (IAG) (human, UniProt Q07812 1-192, IAG (iodacetamide gem-diethyl nitroxide) spin label on the native cysteines 62 and 126); assay: DEER (double electron-electron resonance, EPR); two Bax variants mixed before oligomerization (3-fold excess of unlabeled BaxWT or of Bax_(C87Gd) over nitroxide-labeled BaxWT), activated with cBid and MOM-like liposomes, pellet fraction; NO-NO (50 K), NO-Gd (10 K) and Gd-Gd (10 K) DEER channels on the same sample; details: both partners purified
T1 construct: Bax, human, full length; two native cysteines at positions 62 and 126; also called Bax_(WTIAG); source: E. coli (BL21/RIPL/pTYB1-Bax), purified; labeled with IAG

[3] = target: T2, Bax wild type labeled with MTSL at cysteines 62 and 126 (human, UniProt Q07812 1-192, MTSL nitroxide spin label (R1) on the native cysteines 62 and 126); assay: as above; details: both partners purified
T2 construct: Bax, human, full length; two native cysteines at positions 62 and 126; also called Bax_(WTR1); source: E. coli (BL21/RIPL/pTYB1-Bax), purified; labeled with MTSL

[4] = target: Bax_(C87(C62S, C126S)) labeled with maleimide Gd-DOTA (human) (UniProt Q07812); assay: DEER (double electron-electron resonance, EPR); inactive Bax in buffer (aqueous solution) with 50% v/v glycerol-d8, flash frozen; Q-band 4-pulse DEER, NO-NO at 50 K, Gd-Gd at 10 K; one labeled variant per sample

Row | Molecule | fraction of dimeric protein in solution [1] [%] | binding result [2] | binding result [3] | fraction of dimeric protein in solution [4] [%]
1 | Bax_(C87(C62S, C126S)) labeled with maleimide gem-diethyl nitroxide (MAG) (from UniProt Q07812 1-192) (natural protein) | < 10 | – | – | –
2 | Bax_(C87(C62S, C126S)) labeled with maleimide Gd-DOTA (natural protein, human, UniProt Q07812 1-192, looked up, maleimide Gd-DOTA spin label on cysteine 87, Bax, human, full length, single surface-exposed cysteine at position 87; also called Bax_(C87Gd); source: E. coli, purified in the same way as the wild type protein; labeled with maleimide Gd-DOTA) MDGSGEQPRGGGPTSSEQIMKTGALLLQGFIQDRAGRMGGEAPELALDPVPQDASTKKLSESLKRIGDELDSNMELQRMIAAVDTDCPREVFFRVAADMFSDGNFNWGRVVALFYFASKLVLKALSTKVPELIRTIMGWTLDFLRERLLGWIQDQGGWDGLLSYFGTPTWQTVTIFVAGVLTASLTIWKKMG | – | binds | binds | < 10

— PMC6737250, “A new perspective on membrane-embedded Bax oligomers using DEER and bioresistant orthogonal spin labels” (Scientific Reports, 2019)
